These results are taken from the Human Domainome abundance scans (Beltran et al. 2025).

The chains are these.
B1: Tyrosine-protein kinase Lck, residues 63 to 120; numbered along this chain, P06239 (parent)
chain: DNLVIALHSYEPSHDGDLGFEKGEQLRILEQSGEWWKAQSLTTGQEGFIPFNFVAKAN

± gives the uncertainty stated by the source.

The data set covers variants of B1. The data set can be described thus: abundance fitness (aPCA) (normalised: wild type 0, dead -1); higher = more abundant; growth selection in yeast, the domain comes from the species named. The conditions noted are these: Homo sapiens.
For T43Q, the abundance fitness is -0.549 ± 0.14.

With G44Y, the abundance fitness is -0.467 ± 0.2. As for G44H, the figure is -0.321 ± 0.13; as for G44A, -0.264 ± 0.09; as for G44C, -0.446 ± 0.1. With G44T, the abundance fitness was -0.557 ± 0.17.

In the case of G44S, the abundance fitness is -0.268 ± 0.088.

Consider G44W, for which the abundance fitness is -0.541 ± 0.11. With G44M, the abundance fitness was -0.272 ± 0.18. As for G44Q, the figure is -0.24 ± 0.12; as for G44E, -0.222 ± 0.11.

In the case of G44L, the abundance fitness is -0.271 ± 0.082. Regarding G44F, the abundance fitness is -0.394 ± 0.19. For G44N, the abundance fitness is -0.193 ± 0.15. For the variant G44I, the abundance fitness is -0.591 ± 0.24.

Regarding G44P, the abundance fitness was -1.07 ± 0.3. Take G44R: the abundance fitness is -0.22 ± 0.078. Take G44V: the abundance fitness was -0.819 ± 0.1.

Take T42L: the abundance fitness is -0.12 ± 0.097. As for T42R, the figure is -0.059 ± 0.064; as for T42F, -0.305 ± 0.14; as for T42Q, -0.057 ± 0.12. To T42K belongs 0.042 ± 0.12; to T42A, -0.035 ± 0.082.

With T42E, the abundance fitness is -0.015 ± 0.13. To T42I belongs -0.049 ± 0.083; to T42D, -0.181 ± 0.13; to T42N, 0.034 ± 0.14. For T42Y, the abundance fitness was -0.129 ± 0.15.

For T42M, the abundance fitness is -0.101 ± 0.15. As for T42S, the figure is -0.031 ± 0.078; as for T42G, -0.248 ± 0.079; as for T42W, -0.24 ± 0.078. As for T42H, the figure is -0.08 ± 0.15. As for T42P, the abundance fitness is -0.715 ± 0.14.

Turning to T42V, the abundance fitness was -0.001 ± 0.11.

For K37Q, the abundance fitness is -0.406 ± 0.14. To K37N belongs -0.548 ± 0.17; to K37T, -0.267 ± 0.1. As for K37P, the figure is -0.808 ± 0.18. In the case of K37D, the abundance fitness is -1.16 ± 0.29.

Turning to K37C, the abundance fitness was -0.593 ± 0.12. As for K37H, the figure is -0.388 ± 0.29; as for K37M, -0.307 ± 0.12. To K37R belongs -0.046 ± 0.073; to K37G, -0.96 ± 0.14. As for K37E, the figure is -0.435 ± 0.1; as for K37S, -0.321 ± 0.085.

Regarding K37I, the abundance fitness was -0.151 ± 0.12. To K37F belongs -0.229 ± 0.14. As for K37V, the figure is -0.232 ± 0.092; as for K37A, -0.615 ± 0.12; as for K37Y, -0.177 ± 0.14. As for K37W, the figure is -0.152 ± 0.088; as for G33K, -0.545 ± 0.16. In the case of G33P, the abundance fitness is -0.544 ± 0.14. As to G33A, the abundance fitness is -0.398 ± 0.09.

Consider G33W, for which the abundance fitness is -0.929 ± 0.18. Consider G33N, for which the abundance fitness was -0.145 ± 0.26. Take G33Q: the abundance fitness is -0.767 ± 0.33. To G33E belongs -0.491 ± 0.12; to G33F, -0.853 ± 0.23. To G33C belongs -0.491 ± 0.13. To G33L belongs -0.812 ± 0.12; to G33D, -0.467 ± 0.11; to G33S, -0.166 ± 0.097. On to G33Y, for which the abundance fitness was -0.922 ± 0.25. For G33V, the abundance fitness is -0.881 ± 0.12. To G33H belongs -0.633 ± 0.17; to L41N, -0.624 ± 0.24. To L41W belongs -0.933 ± 0.12. As for L41A, the figure is -0.382 ± 0.094.

L41G: the abundance fitness is -0.721 ± 0.08. To L41D belongs -0.666 ± 0.2; to L41Y, -0.65 ± 0.16; to L41Q, -0.167 ± 0.2.

L41T: the abundance fitness was -0.149 ± 0.11. With L41F, the abundance fitness is -0.54 ± 0.12. In the case of L41I, the abundance fitness was -0.058 ± 0.14. L41H: the abundance fitness is -0.765 ± 0.18. As for L41S, the figure is -0.478 ± 0.077. As for L41K, the figure is -0.348 ± 0.16. Turning to L41M, the abundance fitness was -0.227 ± 0.13. As for L41C, the figure is -0.068 ± 0.1; as for L41R, -0.513 ± 0.073; as for L41P, -0.339 ± 0.14. To L41E belongs -0.153 ± 0.099; to S32A, -0.067 ± 0.091; to S32W, -0.455 ± 0.14. S32R: the abundance fitness came to 0.012 ± 0.081.

For the variant S32L, the abundance fitness is -0.377 ± 0.088. As for S32P, the figure is -0.407 ± 0.14; as for S32H, -0.302 ± 0.18. To S32Q belongs 0.182 ± 0.22. Turning to S32E, the abundance fitness was determined as 0.182 ± 0.13. For the variant S32T, the abundance fitness came out at 0.05 ± 0.11. Turning to S32D, the abundance fitness was -0.07 ± 0.1.

For the variant S32I, the abundance fitness is -0.226 ± 0.11. As for S32K, the figure is 0.06 ± 0.13; as for S32Y, -0.082 ± 0.12.

Turning to S32N, the abundance fitness was 0.101 ± 0.14. To S32G belongs -0.071 ± 0.091; to W36G, -0.283 ± 0.067; to W36C, -0.046 ± 0.098. W36I: the abundance fitness is -0.617 ± 0.31. As for W36L, the figure is -0.101 ± 0.079; as for W36R, -0.213 ± 0.066. To W36Y belongs -0.074 ± 0.16.

W36S: the abundance fitness was -0.408 ± 0.086. On to W36M, for which the abundance fitness was -0.075 ± 0.11. For W36F, the abundance fitness is -0.181 ± 0.13.

Turning to W36D, the abundance fitness is -0.614 ± 0.18. To W36E belongs -0.881 ± 0.16. As for W36T, the figure is -0.029 ± 0.15; as for W36V, -0.1 ± 0.076; as for W36A, 0.032 ± 0.094.

For the variant W36K, the abundance fitness was -0.521 ± 0.22. As for W36H, the figure is -0.585 ± 0.27; as for W36P, -0.298 ± 0.1; as for A38Q, -0.891 ± 0.34. On to A38L, for which the abundance fitness was -0.337 ± 0.1. With A38E, the abundance fitness is -0.934 ± 0.19.

Regarding A38W, the abundance fitness was -0.598 ± 0.19. To A38D belongs -1.01 ± 0.31. Regarding A38N, the abundance fitness is -0.445 ± 0.26. To A38K belongs -0.927 ± 0.27.

On to A38F, for which the abundance fitness is -0.771 ± 0.28. To A38C belongs -0.4 ± 0.12. As for A38S, the figure is -0.795 ± 0.16; as for A38G, -0.483 ± 0.077. Take A38I: the abundance fitness is -0.788 ± 0.3.

In the case of A38V, the abundance fitness was -0.104 ± 0.082. To A38R belongs -1.08 ± 0.15.

With A38T, the abundance fitness was -0.963 ± 0.23. Take A38M: the abundance fitness was -0.656 ± 0.2. As for A38Y, the figure is -0.714 ± 0.22; as for G47C, -1.07 ± 0.18.

Consider G47F, for which the abundance fitness was -0.982 ± 0.45.

On to G47I, for which the abundance fitness is -1.02 ± 0.3. As for G47L, the figure is -0.789 ± 0.1; as for G47M, -0.884 ± 0.17. As for G47D, the figure is -0.912 ± 0.15; as for G47H, -0.81 ± 0.21; as for G47P, -0.687 ± 0.15. With G47Q, the abundance fitness is -0.986 ± 0.18. In the case of G47E, the abundance fitness is -0.831 ± 0.12. As for G47R, the figure is -0.687 ± 0.085; as for G47S, -0.931 ± 0.12. I28Y: the abundance fitness is -0.459 ± 0.2. Consider I28C, for which the abundance fitness is -0.658 ± 0.11. Regarding I28A, the abundance fitness is -0.554 ± 0.11. On to I28N, for which the abundance fitness is -0.585 ± 0.19.

With I28F, the abundance fitness was -0.977 ± 0.26. Turning to I28T, the abundance fitness was -0.683 ± 0.16. I28D: the abundance fitness was -0.833 ± 0.24. As for I28E, the figure is -0.969 ± 0.24. As for I28G, the figure is -0.754 ± 0.11; as for I28V, -0.108 ± 0.085. As for I28K, the figure is -0.903 ± 0.16; as for I28L, -0.074 ± 0.088; as for I28M, -0.662 ± 0.17. For I28H, the abundance fitness was -1.03 ± 0.31.

With I28W, the abundance fitness is -0.941 ± 0.29. Regarding I28S, the abundance fitness was -0.645 ± 0.084. Take I28Q: the abundance fitness is -0.924 ± 0.28.

As to I28R, the abundance fitness is -0.874 ± 0.1. To I28P belongs -0.885 ± 0.15.
